Reference: the Immune Epitope Database (IEDB)

Key:
[1] = biological target: HLA-A*02:01; assay: IEDB peptide-MHC binding, purified MHC/competitive/fluorescence; ≥ and ≤ were set here for values at or beyond the usual limits of such assays
[2] = biological target: HLA-A*24:02; assay: as above
[3] = biological target: HLA-B*18:01; assay: IEDB peptide-MHC binding, purified MHC/direct/fluorescence; filed as Kd, often an IC50 or EC50 that approximates it; ≥ and ≤ were set here for values at or beyond the usual limits of such assays
[4] = biological target: HLA-B*07:02; assay: IEDB peptide-MHC binding, purified MHC/competitive/radioactivity; filed as Kd, often an IC50 or EC50 that approximates it; ≥ and ≤ were set here for values at or beyond the usual limits of such assays
[5] = biological target: HLA-B*08:01; assay: as above; settings: source organism: Dengue virus 4 Philippines/H241/1956
[6] = biological target: HLA-B*15:01; assay: as above
[7] = biological target: HLA-A*24:02; assay: as above
[8] = biological target: HLA-A*23:01; assay: as above
[9] = biological target: HLA-A*29:02; assay: as above
[10] = biological target: HLA-B*44:02; assay: as above
[11] = biological target: HLA-B*44:03; assay: as above
[12] = biological target: HLA-B*58:01; assay: IEDB peptide-MHC binding, purified MHC/direct/fluorescence; filed as Kd, often an IC50 or EC50 that approximates it; ≥ and ≤ were set here for values at or beyond the usual limits of such assays; settings: source organism: Bacillus cereus
[13] = biological target: HLA-B*57:01; assay: as above; settings: source organism: Bacillus cereus
[14] = biological target: HLA-A*01:01; assay: IEDB peptide-MHC binding, purified MHC/competitive/radioactivity; filed as Kd, often an IC50 or EC50 that approximates it; ≥ and ≤ were set here for values at or beyond the usual limits of such assays; settings: source organism: Dengue virus 1 Brazil/97-11/1997
[15] = biological target: HLA-A*30:02; assay: as above; settings: source organism: Dengue virus 1 Brazil/97-11/1997
[16] = biological target: HLA-B*44:02; assay: IEDB peptide-MHC binding, purified MHC/direct/fluorescence; filed as Kd, often an IC50 or EC50 that approximates it; ≥ and ≤ were set here for values at or beyond the usual limits of such assays
[17] = biological target: HLA-A*02:06; assay: IEDB peptide-MHC binding, purified MHC/competitive/radioactivity; filed as Kd, often an IC50 or EC50 that approximates it; ≥ and ≤ were set here for values at or beyond the usual limits of such assays; settings: source organism: Dengue virus 2 Jamaica/1409/1983
[18] = biological target: HLA-B*40:01; assay: IEDB peptide-MHC binding, purified MHC/direct/fluorescence; filed as Kd, often an IC50 or EC50 that approximates it; ≥ and ≤ were set here for values at or beyond the usual limits of such assays; settings: source organism: Amur virus
[19] = source organism: Vaccinia virus WR
[20] = source organism: Zaire ebolavirus
[21] = source organism: Dengue virus 4 Philippines/H241/1956
[22] = source organism: Mammarenavirus guanaritoense
[23] = source organism: Dengue virus 2 Jamaica/1409/1983
[24] = source organism: Dengue virus 4 Dominica/814669/1981
[25] = source organism: Dengue virus 3 Martinique/1243/1999
[26] = source organism: Mammarenavirus brazilense
[27] = source organism: Dengue virus 1 Brazil/97-11/1997
[28] = source organism: Mammarenavirus juninense
[29] = source organism: Sudan ebolavirus
[30] = source organism: Lymphocytic choriomeningitis virus (strain Armstrong)
[31] = source organism: Vaccinia virus Copenhagen

IRWLGGILP
IC50 [1, 19]: ≥ 156000 nM
IC50 [2, 19]: 48100 nM

KENGVDLSV
Kd ([3]; source organism: West Nile virus): 5220 nM

KFLLIHQGM
IC50 [1, 20]: ≥ 150000 nM
IC50 [2, 20]: 256 nM

KPKGKVVDL
Kd [4, 21]: 43.4 nM
Kd [5]: 124 nM

KQFKQDSKY
Kd ([6]; source organism: Lymphocytic choriomeningitis virus (strain Armstrong) (clone 53b)): 13 nM

KVINLSELL
Kd [7, 22]: 17600 nM
Kd [8, 22]: 426 nM
Kd [9, 22]: 11900 nM

LARVGRERL
Kd [4, 23]: 298 nM

LENVMWKQI
Kd [10, 24]: 105 nM
Kd [11, 24]: 157 nM

LESGAVKYL
IC50 [1, 20]: ≥ 222000 nM
IC50 [2, 20]: ≥ 128000 nM

LFMALVAFL
Kd [7, 23]: 8200 nM

LGKCGSCVY
Kd [6, 25]: 110 nM

LGTIYGFIW
Kd [12]: 6.3 nM
Kd [13]: 521 nM

LLSRYDEHF
Kd [6, 19]: 54 nM

LMCPDECPG
Kd [6, 19]: 899 nM

LSHLSLGLI
Kd [7, 26]: ≥ 21000 nM
Kd [8, 26]: 7760 nM
Kd [9, 26]: 9100 nM

LSKSEFNTY
Kd [14]: 2740 nM
Kd [15]: 11.1 nM
Kd [6, 27]: 7.88 nM

LWTTLLSLTF
Kd [7, 27]: 14.3 nM
Kd [8, 27]: 20.6 nM

MLMLVNDRLL
Kd [7, 28]: ≥ 70300 nM
Kd [8, 28]: 11400 nM
Kd [9, 28]: ≥ 20000 nM

NEHKSTWHY
Kd [10, 27]: 84.1 nM
Kd [11, 27]: 173 nM

NEVHTWTEQ
Kd [11, 27]: 6680 nM

NITDKINQI
IC50 [1, 29]: 43700 nM
IC50 [2, 29]: 5960 nM

QEGAMHTAL
Kd ([16]; source organism: Dengue virus): 6660 nM
Kd ([3]; source organism: Dengue virus): 39.5 nM

QHNAAGIAW
IC50 [2, 29]: 21200 nM

QKEGVFHTMW
Kd [10, 25]: 181 nM
Kd [11, 25]: 411 nM

QYLIIQNRTW
Kd [7, 30]: 693 nM
Kd [8, 30]: 57.4 nM
Kd [9, 30]: 687 nM

RFEVKKRDG
IC50 [1, 20]: ≥ 568000 nM
IC50 [2, 20]: ≥ 81100 nM

RPMFAVGLL
Kd [4, 27]: 5.06 nM

RPTPTGTVMD
Kd [4, 25]: 41.5 nM

RSMPGTRRVM
Kd [4, 25]: 91.9 nM

SARGLCAHI
Kd [6, 19]: 1220 nM

SFEEMYRHI
IC50 [2, 20]: 6110 nM

SGTETKITF
IC50 [2, 31]: 11300 nM

SIILEFFLI
Kd [17]: 1.59 nM
Kd [7, 23]: 1250 nM

SLIYLCTFM
Kd [6, 19]: 4.45 nM

SMKYLMLLF
Kd [6, 19]: 3.84 nM

SSQVKCCHY
Kd [6, 19]: 347 nM

SYGEYQSYS
IC50 [2, 20]: 52300 nM

TLGYCMIRW
IC50 [2, 19]: ≥ 105000 nM

TSGKYFSTF
Kd [6, 31]: 85.9 nM

TTIRYQATG
IC50 [2, 20]: 58300 nM

VHSQGREAA
IC50 [1, 20]: 40400 nM
IC50 [2, 20]: 1900 nM

VLLDYGLHG
Kd [6, 19]: ≥ 27500 nM

VPLQWIASA
Kd ([4]; source organism: Dengue virus 3 Sri Lanka/1266/2000): 178 nM

VRSETKQKF
IC50 ([2]; source organism: Vaccinia virus): 1820 nM

WQQVPFCSH
Kd [6, 27]: 102 nM

WYAQIQPHW
Kd [7, 23]: 24.3 nM
Kd [8, 23]: 62.1 nM

YECETYKEL
Kd ([16]; source organism: Amur virus): ≥ 20000 nM
Kd [18]: 14.8 nM
Kd ([3]; source organism: Amur virus): 5.3 nM

YGANYFLQI
Kd [6, 19]: 1760 nM

YQVKTETTIL
Kd [6, 21]: 43.1 nM
